According to US20040170601A1, “Method of improving the growth performance of an animal” (priority 2001, published 2004):
“Also recorded” adds a separate entry of the source.

Experiments:
[1] = Example 4: growth performance of pigs administered IL-5 in a commercial piggery; type: in vivo; design: average weight, higher than saline medicated controls / rate of gain (ROG), increase over saline medicated control / increase in total weight compared to saline medicated control group / increase in weight gain compared to saline medicated control group / increase in average weight compared to saline medicated control group: concentration or dose not given beside the values
Description: This trial evaluated the capacity of IL-5 to improve growth performance and immunity of pigs by comparing the growth rate and health of weaner pigs (28 day old weaners is Day 0 of the trial and the weaner period continued for 42 days) through to the finisher stage (Days 93 to 113) and slaughter (133 days after commencing the trial). The pigs were administered recombinant porcine cytokine, IL-5, and saline was used as a control, with and without standard weaner medicated water and feed in a commercial piggery environment.
40 pigs per treatment mixed in-groups of 20, with 4 replicates containing standard medicated water and feed and 4 replicates without medicated feed or water.
Overall weights for each group at the start of the experiment were equivalent. All pigs at the start of the trial (Day 0) were 28 day old male weaners.
IL-5 was provided in saline to inject one ml/pig.
Weights were measured at the start, weekly and at end of the experiment. The original proposal was designed for measuring weight over the weaner period; however, due to significant growth responses with IL-5 administration the measurement of weight continued to slaughter (pigs were 161 days old).
Recombinant porcine IL-5 was expressed in E. coli and purified using a polyHis tag system as described in Qiagen Inc, USA, instructions and Clontech, USA, Talon Manual instructions. IL-5 was tested for biological activity in a bioassay prior to the start of the experiment.
At the start of the trial, the mean weights and variance for each group were equalised. Thus, the increase in total or average weights witnessed in the IL-5 medicated group was due to IL-5 administration and not simply due to differences between weights at the start of the trial.

[2] = tested on: eosinophils; assay: Example 4: % eosinophils of WBC in blood; type: in vivo, pigs; conditions: blood the day after treatment, end of weaner period
Source text: Blood and sera samples collected at the start (before treatments) and end of the weaner period. Blood and sera were taken prior to injecting samples.
Blood was taken the day after IL-5 and saline treatments and represent a single time point only. […] As a general observation IL-5 plus medication had higher eosinophils numbers than the IL-5 without antibiotics.

[3] = Example 5: production loss during outbreak of post weaning scours; type: in vivo, pigs; conditions: normal antibiotics, 2 days into weaner period
Source text: (§1) Unfortunately, a severe outbreak of post weaning scours affected all treatment groups. The most likely cause of the scours was E. coli. […] FIG. 25 compares the average weights of the saline controls, with and without antibiotics, from this experiment and the previous experiment. […] The infectious disease (scours) affected the un-medicated saline group at an earlier stage than the medicated group.
(§2) Weights were taken from the start to the end of the weaner period. […] This benefit was also reflected in the production loss as measured by deaths from infectious disease, or weight loss over any given week during the weaner period (FIG. 29).
(§3) All other deaths were a result of scours. Weight loss was defined as one or more weekly weight reductions of individual pigs. […] Antibiotic supplements also lessened production loss. Weight loss could have also been a result of stress, especially at the time of weaning when pigs are removed from sows, transported, mixed in different social groups and fed dry food. […] The higher average weights were presumably due to reduced severity of disease and associated weight loss. […] The pattern of higher average weight gains in IL-5 treated pigs was repeated with the reduced level and normal level of antibiotic supplementation (FIG. 31 and FIG. 32 respectively). […]

[4] = tested on: E. coli; assay: as above; type: in vivo, pigs; conditions: vs respective saline controls
Source text: as §1, §2, §3

[5] = tested on: eosinophils; assay: Example 5: haematology, eosinophil levels; design: species or system pigs; conditions: pig, in vivo
Description: Pigs were weaned and weighted at the start of the experiment (D0, W0) and weekly until the end of the weaner period (W6), at the end of the grower (W13) and finisher (W19) stages and once during the grower (W9) and finisher (W16) stages. Blood and sera samples were collected at the start (before treatments) and end of the weaner, grower and finisher periods. Blood and sera were taken prior to treatment injection. Haematology (totals and differentials) was performed.
Haematology and differentials were undertaken at various time points during the trial. There were no significant changes between groups for these parameters except for eosinophil levels (FIG. 41).

[6] = end of the treatment period, 1st trial, IL-5 plus medication

B1: interleukin 5 (protein, UniProt Q9MYM5 22-134, looked up)
Interleukin-5: VENTMNRLVAETLTLLSIHRTLLIGDGNLMISTPVHTNHQLCIEEVFQGIDTLKNQTARGDAVEKLFQNLSLIKEYIDRQKKNCGGERWRVTQFLDYLQVFLGVINTEWTMES
notes: recombinant porcine IL-5 protein expressed in E. coli; + / − = with / without antibiotic medicated feed and water, +p = weaner period only
consistency of growth performance (individual weights at end of weaner period) ([1]; IL-5 medicated group): more consistent than all other groups | average weight, higher than saline medicated controls ([1]; IL-5 medicated group, Week 1): 5.5% | rate of gain (ROG), increase over saline medicated control ([1]; IL-5 medicated group, Week 1): 45.6% | total combined group weight, higher than saline medicated group ([1]; IL-5 medicated group, Week 1): 5.5% | average weight, higher than saline medicated controls ([1]; IL-5 medicated group, Week 2): 6.3% | rate of gain (ROG), increase over saline medicated control ([1]; IL-5 medicated group, Week 2): 19.6% | total combined group weight, higher than saline medicated group ([1]; IL-5 medicated group, Week 2): 6.3% | average weight, higher than saline medicated controls ([1]; IL-5 medicated group, Week 3): 8.8% | rate of gain (ROG), increase over saline medicated control ([1]; IL-5 medicated group, Week 3): 18.2% | total combined group weight, higher than saline medicated group ([1]; IL-5 medicated group, Week 3): 8.8% | average weight, higher than saline medicated controls ([1]; IL-5 medicated group, Week 4): 5.5% | rate of gain (ROG), increase over saline medicated control ([1]; IL-5 medicated group, Week 4): 8.8% | total combined group weight, higher than saline medicated group ([1]; IL-5 medicated group, Week 4): 11.1% | average weight, higher than saline medicated controls ([1]; IL-5 medicated group, Week 5): 7.8% | rate of gain (ROG), increase over saline medicated control ([1]; IL-5 medicated group, Week 5): 11.3% | total combined group weight, higher than saline medicated group ([1]; IL-5 medicated group, Week 5): 13.4% | average weight, higher than saline medicated controls ([1]; IL-5 medicated group, Week 6): 6.8% | rate of gain (ROG), increase over saline medicated control ([1]; IL-5 medicated group, Week 6): 9.1% | total combined group weight, higher than saline medicated group ([1]; IL-5 medicated group, Week 6): 18.6% | average weights during weaner period ([1]; IL-5 un-medicated group vs un-medicated saline controls): consistently small increase in average weights over the un-medicated saline controls except for the last week | increase in average weight compared to saline medicated control group [1, 6]: 7% | increase in total weight compared to saline medicated control group [1, 6]: 18% | increase in weight gain compared to saline medicated control group [1, 6]: 9% | average weights of individual pigs during trial ([1]; medicated): consistently higher average weights than all other groups | increase of average warm carcass weight over the medicated saline control ([1]; medicated): 6 kg | rate of gain over the weaner period ([1]; medicated): consistently increased the rate of gain in the medicated pigs | total weights of all pigs in group over the entire production period ([1]; medicated): significant increase in total weights compared to all other groups | warm carcass weight ([1]; medicated with antibiotics, vs saline controls): increased warm carcass weight compared to saline controls when pigs were medicated with antibiotics | individual final weights ([1]; medicated, all pigs of group): above 90 kg | total combined group weight above saline medicated group ([1]; over 6 weeks for a group of 20 pigs, medicated): 89 kg | rate of gain over the weaner period ([1]; un-medicated): generally higher than the un-medicated saline control | variation in individual pig weights ([1]; up to slaughter): reduced variation in individual pig weights up to slaughter | dressing percentage of carcasses at slaughter ([1]; with or without antibiotics, vs saline controls): improved dressing percentage regardless of antibiotic administration; also recorded: significantly higher % dressing than the respective saline controls | % eosinophil cells of WBC [2]: substantial effect on % eosinophil cells of WBC in both the medicated and un-medicated groups | deaths [3]: H. parasuis deaths occurred | production loss (deaths from infectious disease or weight loss), weaner period [4]: less production loss compared to their respective saline controls | levels of eosinophils in blood (absolute numbers and differentials) [5]: significantly increased the levels of eosinophils in blood
